Assay results from the supplement of paper PMC10065799, “High-throughput profiling of sequence recognition by tyrosine kinases and SH2 domains using bacterial peptide display” (eLife, 2023).

The sequences below were run against Jak2 (UniProt O60674) (assay: phosphorylation enrichment, bacterial display (enrichment ratio); higher = better substrate or ligand; peptides without Tyr show the background).
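Further: 11-residue human phosphosite peptides and single-mutation variants displayed on the E. coli surface, counted by deep sequencing, each peptide's frequency after selection divided by its frequency in the unselected input library; frequency after pTyr selection over input frequency; kinase dosed for 20-30% of maximal phosphorylation in three min.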

Chain of Jak2 (O60674 whole entry, looked up): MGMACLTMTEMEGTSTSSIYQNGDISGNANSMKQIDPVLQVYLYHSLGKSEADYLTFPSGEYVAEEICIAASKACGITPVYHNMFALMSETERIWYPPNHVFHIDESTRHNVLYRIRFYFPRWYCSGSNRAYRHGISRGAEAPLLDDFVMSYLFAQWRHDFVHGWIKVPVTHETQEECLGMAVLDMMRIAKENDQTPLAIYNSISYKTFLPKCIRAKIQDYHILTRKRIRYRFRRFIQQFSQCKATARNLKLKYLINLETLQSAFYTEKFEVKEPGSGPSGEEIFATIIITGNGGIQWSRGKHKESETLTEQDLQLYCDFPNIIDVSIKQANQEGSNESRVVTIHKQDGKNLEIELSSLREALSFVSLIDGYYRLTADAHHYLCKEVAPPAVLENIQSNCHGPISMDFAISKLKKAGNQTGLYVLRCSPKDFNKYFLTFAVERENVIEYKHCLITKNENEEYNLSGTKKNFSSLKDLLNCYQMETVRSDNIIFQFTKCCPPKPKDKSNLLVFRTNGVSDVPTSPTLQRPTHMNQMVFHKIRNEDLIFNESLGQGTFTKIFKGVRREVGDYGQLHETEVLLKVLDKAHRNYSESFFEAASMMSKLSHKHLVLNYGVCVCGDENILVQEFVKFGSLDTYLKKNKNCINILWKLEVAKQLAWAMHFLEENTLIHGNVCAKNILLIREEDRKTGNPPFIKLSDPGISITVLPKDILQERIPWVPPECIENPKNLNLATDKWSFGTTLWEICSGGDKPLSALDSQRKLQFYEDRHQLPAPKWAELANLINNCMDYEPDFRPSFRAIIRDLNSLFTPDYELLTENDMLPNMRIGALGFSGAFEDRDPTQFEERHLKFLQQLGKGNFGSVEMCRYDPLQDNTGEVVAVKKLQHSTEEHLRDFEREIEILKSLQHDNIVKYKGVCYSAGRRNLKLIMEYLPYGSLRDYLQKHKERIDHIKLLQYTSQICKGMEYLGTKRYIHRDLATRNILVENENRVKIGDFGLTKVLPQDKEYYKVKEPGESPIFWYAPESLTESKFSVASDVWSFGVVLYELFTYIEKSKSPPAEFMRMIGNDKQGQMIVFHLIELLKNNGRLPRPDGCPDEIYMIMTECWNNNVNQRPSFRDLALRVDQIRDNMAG

Sequence	phosphorylation enrichment
EDDIIYTQDFT [STK11_Y362]	1.29
LDAGEYCVPRG [BEX1_Y43]	1.05
NKEAIYSGFIR [SMCHD1_Y283_YF]	0.711
IATAIYSGDKI [UGGT2_Y823]	0.6
GPKFGYDEIDN [ACOX1_Y232]	0.765
INSLKYAFNIS [EIF2B5_Y583_YF]	0.809
HSREDYFECFQ [ZIM2_Y411_Q408R]	1.58
PRLMLYNPTTY [EGFR_Y270_P266R]	1.08
FPPTHYIRRVP [SLC4A11_Y820_YF]	0.755
ATVRPYRPYII [LRP5_Y1528_A1525V]	0.564
PLFKICVAELI [MRPL28_Y230_Y230C]	1.31
FEREQYADRTR [RBM4_Y355_A359T_YF]	0.582
PPAPRYHHSAV [LZTR1_Y119]	0.781
TLNHQYDYTFH [CSNK1A1_Y292_D297H]	0.654
KDFNKYVAYIE [KDM4B_Y31]	0.603
SDVDLYQVRTA [PSMD9_Y70]	0.645
DVRQEYSGMIL [PLXND1_Y616_P617S]	0.678
DENWFYTRPAS [RPS19_Y54_A57P]	1.43
HPWPRYTTRAP [FNDC1_Y1281_Q1280R]	0.518
TFGQVYKGPHV [TNIK_Y40_R43P_YF]	0.608
LLVVVYKFRCF [PSEN1_Y154_L153V_YF]	0.707
QQLDEYQELLD [LMNA_Y359]	1.3
RVKTPYSLKRW [BMPR2_Y979]	1.24
ADRTRYSAFGG [RBM4_Y361_A359T]	0.551
ADEEYYEIIAA [FEStide_no-pY_2014]	1.31
TKDTFYKQPMV [GBA_Y451_F456V]	0.729
TENAGYYFRIS	1.71
FHKALYTVRSF [PDE6C_Y266_YF]	0.674
DMLTLYVNTAA [SMCHD1_Y403_Q400L]	1.13

What follows are sequences tested against MERTK (UniProt Q12866) in the same assay as above.
Chain of MERTK (Q12866 whole entry, looked up): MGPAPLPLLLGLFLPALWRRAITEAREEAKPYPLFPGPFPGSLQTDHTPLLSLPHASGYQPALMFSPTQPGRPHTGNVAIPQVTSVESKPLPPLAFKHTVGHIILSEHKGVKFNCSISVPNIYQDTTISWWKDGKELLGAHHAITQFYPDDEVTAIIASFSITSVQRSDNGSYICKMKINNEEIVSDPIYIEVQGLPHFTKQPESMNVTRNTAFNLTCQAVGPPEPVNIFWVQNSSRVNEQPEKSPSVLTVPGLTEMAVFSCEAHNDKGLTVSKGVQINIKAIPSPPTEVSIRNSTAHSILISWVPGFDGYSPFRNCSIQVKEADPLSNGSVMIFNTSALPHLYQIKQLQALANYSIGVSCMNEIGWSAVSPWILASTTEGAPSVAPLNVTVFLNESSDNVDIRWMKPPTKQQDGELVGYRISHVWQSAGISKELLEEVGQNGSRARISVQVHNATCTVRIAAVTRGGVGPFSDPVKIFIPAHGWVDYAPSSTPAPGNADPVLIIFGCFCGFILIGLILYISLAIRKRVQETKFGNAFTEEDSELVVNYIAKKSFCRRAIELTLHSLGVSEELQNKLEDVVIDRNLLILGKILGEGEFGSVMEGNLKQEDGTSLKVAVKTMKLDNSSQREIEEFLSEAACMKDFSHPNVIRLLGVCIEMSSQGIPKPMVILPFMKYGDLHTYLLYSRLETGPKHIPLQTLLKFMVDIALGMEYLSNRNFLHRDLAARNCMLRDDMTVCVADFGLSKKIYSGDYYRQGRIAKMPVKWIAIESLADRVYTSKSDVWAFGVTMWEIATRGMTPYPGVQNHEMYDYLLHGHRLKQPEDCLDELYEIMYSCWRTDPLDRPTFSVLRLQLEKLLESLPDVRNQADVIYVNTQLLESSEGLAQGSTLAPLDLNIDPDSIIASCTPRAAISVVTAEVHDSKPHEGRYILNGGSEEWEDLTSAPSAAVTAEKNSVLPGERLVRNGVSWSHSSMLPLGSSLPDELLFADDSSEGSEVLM

Sequence	phosphorylation enrichment
EDDIIYTQDFT [STK11_Y362]	0.631
LDAGEYCVPRG [BEX1_Y43]	0.866
NKEAIYSGFIR [SMCHD1_Y283_YF]	12.7
IATAIYSGDKI [UGGT2_Y823]	0.455
GPKFGYDEIDN [ACOX1_Y232]	0.381
INSLKYAFNIS [EIF2B5_Y583_YF]	0.349
HSREDYFECFQ [ZIM2_Y411_Q408R]	0.721
PRLMLYNPTTY [EGFR_Y270_P266R]	0.649
FPPTHYIRRVP [SLC4A11_Y820_YF]	0.522
ATVRPYRPYII [LRP5_Y1528_A1525V]	0.484
PLFKICVAELI [MRPL28_Y230_Y230C]	0.469
FEREQYADRTR [RBM4_Y355_A359T_YF]	0.426
PPAPRYHHSAV [LZTR1_Y119]	0.351
TLNHQYDYTFH [CSNK1A1_Y292_D297H]	1.11
KDFNKYVAYIE [KDM4B_Y31]	0.379
SDVDLYQVRTA [PSMD9_Y70]	0.411
DVRQEYSGMIL [PLXND1_Y616_P617S]	0.35
DENWFYTRPAS [RPS19_Y54_A57P]	0.477
HPWPRYTTRAP [FNDC1_Y1281_Q1280R]	0.605
TFGQVYKGPHV [TNIK_Y40_R43P_YF]	0.381
LLVVVYKFRCF [PSEN1_Y154_L153V_YF]	0.463
QQLDEYQELLD [LMNA_Y359]	0.6
RVKTPYSLKRW [BMPR2_Y979]	0.572
ADRTRYSAFGG [RBM4_Y361_A359T]	0.382
ADEEYYEIIAA [FEStide_no-pY_2014]	1.53
TKDTFYKQPMV [GBA_Y451_F456V]	0.407
TENAGYYFRIS	0.433
FHKALYTVRSF [PDE6C_Y266_YF]	0.378
DMLTLYVNTAA [SMCHD1_Y403_Q400L]	0.444

The sequences below were run against EPHB2 (UniProt P29323) in the same assay as above.
Chain of EPHB2 (P29323 whole entry, looked up): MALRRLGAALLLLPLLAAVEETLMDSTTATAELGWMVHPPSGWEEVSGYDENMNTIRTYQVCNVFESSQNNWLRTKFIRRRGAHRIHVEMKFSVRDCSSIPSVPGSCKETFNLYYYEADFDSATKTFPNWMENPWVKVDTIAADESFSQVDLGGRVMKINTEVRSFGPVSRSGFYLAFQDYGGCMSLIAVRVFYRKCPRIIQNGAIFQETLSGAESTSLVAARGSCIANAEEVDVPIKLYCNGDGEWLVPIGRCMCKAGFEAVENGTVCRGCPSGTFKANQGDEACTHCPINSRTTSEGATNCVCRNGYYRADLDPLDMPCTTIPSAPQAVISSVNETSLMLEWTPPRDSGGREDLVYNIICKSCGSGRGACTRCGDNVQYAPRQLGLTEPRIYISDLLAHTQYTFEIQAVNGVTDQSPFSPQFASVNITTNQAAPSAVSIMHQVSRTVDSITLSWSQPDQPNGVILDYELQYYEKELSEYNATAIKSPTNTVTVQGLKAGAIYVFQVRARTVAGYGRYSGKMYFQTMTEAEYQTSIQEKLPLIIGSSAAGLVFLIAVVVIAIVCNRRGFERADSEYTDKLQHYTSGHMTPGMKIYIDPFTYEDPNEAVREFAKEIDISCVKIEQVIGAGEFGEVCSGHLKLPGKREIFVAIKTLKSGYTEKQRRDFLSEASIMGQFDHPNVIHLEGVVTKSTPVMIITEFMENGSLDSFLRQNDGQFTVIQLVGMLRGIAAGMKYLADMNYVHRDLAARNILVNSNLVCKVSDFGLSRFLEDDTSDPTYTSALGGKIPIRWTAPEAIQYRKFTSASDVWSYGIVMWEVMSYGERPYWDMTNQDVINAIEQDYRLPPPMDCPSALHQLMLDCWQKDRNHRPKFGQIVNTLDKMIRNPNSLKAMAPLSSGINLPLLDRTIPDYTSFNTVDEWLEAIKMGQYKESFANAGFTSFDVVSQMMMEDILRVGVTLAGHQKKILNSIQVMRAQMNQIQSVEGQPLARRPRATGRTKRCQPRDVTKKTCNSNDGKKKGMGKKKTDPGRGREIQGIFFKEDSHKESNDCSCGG

Sequence	phosphorylation enrichment
EDDIIYTQDFT [STK11_Y362]	0.647
LDAGEYCVPRG [BEX1_Y43]	3.87
NKEAIYSGFIR [SMCHD1_Y283_YF]	7.14
IATAIYSGDKI [UGGT2_Y823]	0.432
GPKFGYDEIDN [ACOX1_Y232]	0.688
INSLKYAFNIS [EIF2B5_Y583_YF]	0.475
HSREDYFECFQ [ZIM2_Y411_Q408R]	1.19
PRLMLYNPTTY [EGFR_Y270_P266R]	0.905
FPPTHYIRRVP [SLC4A11_Y820_YF]	0.53
ATVRPYRPYII [LRP5_Y1528_A1525V]	0.552
PLFKICVAELI [MRPL28_Y230_Y230C]	0.888
FEREQYADRTR [RBM4_Y355_A359T_YF]	0.478
PPAPRYHHSAV [LZTR1_Y119]	0.44
TLNHQYDYTFH [CSNK1A1_Y292_D297H]	0.873
KDFNKYVAYIE [KDM4B_Y31]	0.449
SDVDLYQVRTA [PSMD9_Y70]	0.538
DVRQEYSGMIL [PLXND1_Y616_P617S]	0.531
DENWFYTRPAS [RPS19_Y54_A57P]	0.55
HPWPRYTTRAP [FNDC1_Y1281_Q1280R]	0.713
TFGQVYKGPHV [TNIK_Y40_R43P_YF]	0.454
LLVVVYKFRCF [PSEN1_Y154_L153V_YF]	0.45
QQLDEYQELLD [LMNA_Y359]	0.757
RVKTPYSLKRW [BMPR2_Y979]	0.516
ADRTRYSAFGG [RBM4_Y361_A359T]	0.356
ADEEYYEIIAA [FEStide_no-pY_2014]	0.795
TKDTFYKQPMV [GBA_Y451_F456V]	0.585
TENAGYYFRIS	0.576
FHKALYTVRSF [PDE6C_Y266_YF]	0.489
DMLTLYVNTAA [SMCHD1_Y403_Q400L]	0.775

What follows are sequences tested against Hck (UniProt P08631) in the same assay as above.
Chain of Hck (P08631 whole entry, looked up): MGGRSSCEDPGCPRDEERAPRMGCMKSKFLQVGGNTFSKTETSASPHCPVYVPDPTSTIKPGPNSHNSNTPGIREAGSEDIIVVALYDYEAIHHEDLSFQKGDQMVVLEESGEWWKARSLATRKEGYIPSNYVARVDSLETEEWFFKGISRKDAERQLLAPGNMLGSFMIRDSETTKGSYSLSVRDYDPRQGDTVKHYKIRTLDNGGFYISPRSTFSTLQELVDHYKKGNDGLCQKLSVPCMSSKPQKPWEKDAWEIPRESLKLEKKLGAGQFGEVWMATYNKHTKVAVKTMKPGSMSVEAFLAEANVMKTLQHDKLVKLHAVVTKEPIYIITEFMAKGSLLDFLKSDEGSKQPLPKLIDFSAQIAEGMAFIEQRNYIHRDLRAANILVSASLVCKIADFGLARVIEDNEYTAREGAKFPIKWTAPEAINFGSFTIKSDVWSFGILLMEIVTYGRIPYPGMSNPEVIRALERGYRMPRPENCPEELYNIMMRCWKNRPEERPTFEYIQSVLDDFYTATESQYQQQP

Sequence	phosphorylation enrichment
EDDIIYTQDFT [STK11_Y362]	0.742
LDAGEYCVPRG [BEX1_Y43]	1.57
NKEAIYSGFIR [SMCHD1_Y283_YF]	13.1
IATAIYSGDKI [UGGT2_Y823]	2.38
GPKFGYDEIDN [ACOX1_Y232]	0.359
INSLKYAFNIS [EIF2B5_Y583_YF]	0.424
HSREDYFECFQ [ZIM2_Y411_Q408R]	0.907
PRLMLYNPTTY [EGFR_Y270_P266R]	0.692
FPPTHYIRRVP [SLC4A11_Y820_YF]	0.965
ATVRPYRPYII [LRP5_Y1528_A1525V]	0.43
PLFKICVAELI [MRPL28_Y230_Y230C]	0.692
FEREQYADRTR [RBM4_Y355_A359T_YF]	0.459
PPAPRYHHSAV [LZTR1_Y119]	0.717
TLNHQYDYTFH [CSNK1A1_Y292_D297H]	0.596
KDFNKYVAYIE [KDM4B_Y31]	0.485
SDVDLYQVRTA [PSMD9_Y70]	4.25
DVRQEYSGMIL [PLXND1_Y616_P617S]	0.498
DENWFYTRPAS [RPS19_Y54_A57P]	0.565
HPWPRYTTRAP [FNDC1_Y1281_Q1280R]	0.849
TFGQVYKGPHV [TNIK_Y40_R43P_YF]	0.448
LLVVVYKFRCF [PSEN1_Y154_L153V_YF]	0.462
QQLDEYQELLD [LMNA_Y359]	0.684
RVKTPYSLKRW [BMPR2_Y979]	0.745
ADRTRYSAFGG [RBM4_Y361_A359T]	0.37
ADEEYYEIIAA [FEStide_no-pY_2014]	2.32
TKDTFYKQPMV [GBA_Y451_F456V]	0.348
TENAGYYFRIS	0.475
FHKALYTVRSF [PDE6C_Y266_YF]	0.557
DMLTLYVNTAA [SMCHD1_Y403_Q400L]	0.557
